Data reported in patent US11674128.

Biological target: mini-SaCas9-3 with four tandem repeats of SpyTag fused to its C-terminal (Streptococcus pyogenes)
Assay: cell-based or functional assay

## SpyCatcher:VPR
  expression of the enhanced blue fluorescent protein 2 (EBFP2) reporter gene compared to the negative control: 100 fold
